Test results published in patent US11312781B2, “Antigen binding molecules that bind LIGHT” (Capella Bioscience Ltd., priority 2018, dated 2022).

Assays:
[1] = target: T1, soluble LIGHT amino acids 74-240 (Homo sapiens, UniProt O43557, K214E); assay: BIAcore (SPR) binding to soluble LIGHT 74-240
T1 construct: amino acids 74-240 LIGHT (R&D Systems, 664-LI-025); purchased R&D Systems 664-LI-025
Protocol: (§1) Real-time binding interactions between captured antibody (chimeric anti-membrane LIGHT monoclonal antibody) captured on a biosensor matrix via goat anti-human Fc IgG and recombinant soluble LIGHT were measured by surface plasmon resonance (SPR) using the BIAcore system (GE Healthcare) according to manufacturer's instructions and standard procedures. Briefly, soluble LIGHT was diluted in HBS running buffer (GE Healthcare) and aliquots were injected through the immobilized protein matrices at a flow rate of […]. BIAevaluation software was used to calculate association rate (ka), dissociation rate (kd) and affinity (KD).
(§2) The specificity of two lead anti-membrane LIGHT mAbs to soluble LIGHT was determined by BIAcore analysis and compared to the KD calculated from the EC50 values in Table 7 (results in Table 9). In brief, mAbs 3D12, 3B04 were compared to a mAb that binds both soluble and membrane LIGHT, F19, (F19 IgG4 mAb from EP2292663). An irrelevant anti-HEL mAb, 2A11, was used as a negative control. The mAbs were captured on an anti-human Fc mAb coated chip and soluble LIGHT was passed over the surface and the kinetic parameters were calculated using BIAcore 3000 software. The soluble LIGHT preparations used were amino acids 74-240 LIGHT (R&D Systems, 664-LI-025) and 64-240 LIGHT (Abcam, ab82123).

[2] = target: T2, soluble LIGHT amino acids 64-240 (Homo sapiens, UniProt O43557); assay: BIAcore (SPR) binding to soluble LIGHT 64-240
T2 construct: 64-240 LIGHT (Abcam, ab82123); purchased Abcam ab82123
T2 sequence (O43557 64-240): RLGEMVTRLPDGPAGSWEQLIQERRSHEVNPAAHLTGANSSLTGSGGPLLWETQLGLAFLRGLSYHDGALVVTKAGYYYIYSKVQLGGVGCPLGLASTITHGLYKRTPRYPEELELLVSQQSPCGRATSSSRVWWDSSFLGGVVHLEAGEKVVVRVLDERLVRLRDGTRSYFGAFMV
Protocol: as §1, §2

[3] = target: T3, membrane LIGHT stably expressed on EL4 cells (Homo sapiens, UniProt O43557); assay: Binding ratio of mAbs bound to membrane LIGHT by flow cytometry (EL4 cells); settings: FIG. 7
T3 construct: expressed in transfected cells; host or cells: EL4 mouse lymphoma cells, stably transduced (Cheung et al. J. Immunol. 2009)
T3 sequence (O43557 whole entry): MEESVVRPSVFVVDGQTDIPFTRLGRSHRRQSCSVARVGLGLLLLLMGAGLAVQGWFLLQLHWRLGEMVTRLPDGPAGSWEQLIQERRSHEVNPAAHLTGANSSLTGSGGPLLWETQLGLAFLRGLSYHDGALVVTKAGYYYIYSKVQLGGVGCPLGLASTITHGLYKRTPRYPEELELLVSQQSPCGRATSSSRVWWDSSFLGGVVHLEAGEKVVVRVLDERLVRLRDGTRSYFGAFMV
Protocol: Stably transduced LIGHT expressing EL4 cells (mouse lymphoma cell line; EL4-LIGHT; Cheung et al. J. Immunol. 2009; 183:7286-7296) were used for the flow cytometry-based binding analysis. EL4-LIGHT cells (0.25×10^6 per well) that had been washed in were incubated with anti-LIGHT IgG4 clones (0.002-100 nM) for 30 min at 4° C. The cells were washed and anti-human IgG-APC conjugate (diluted 1:500, Biolegend cat. No. 409306) was used for detecting anti-LIGHT IgG bound on EL4-LIGHT cells.
FIG. 7 depicts the flow cytometry analysis of the anti-membrane LIGHT mAbs (3B04 and 3D12) binding to LIGHT stably expressed on EL4 cells. The maximum signal of the IgG4 mAbs 3B04 and 3D12 binding to membrane LIGHT is approximately 40000 MFI. In contrast anti-LIGHT mAbs F19 and F23 (IgG4 mAbs from EP2292663) gave a maximal signal of approximately 120000 MFI. The ratio of binding of mAb F19 and mAb F23 is approximately 3 times that of the anti-membrane LIGHT mAbs 3B04 and 3D12. […] Other mAbs of this invention; 2E08, 3A07, 3C10, 3E09 and 2B11 also bind LIGHT in a 1:1 ratio when compared to mAbs F19 and F23 by flow cytometry.

T1 sequence (O43557 74-240 K214E): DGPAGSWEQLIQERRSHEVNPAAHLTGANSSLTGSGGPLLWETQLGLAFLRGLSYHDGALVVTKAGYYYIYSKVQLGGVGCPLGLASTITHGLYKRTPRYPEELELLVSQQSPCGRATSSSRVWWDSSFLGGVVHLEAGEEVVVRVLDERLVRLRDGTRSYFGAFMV

Molecule	74-240 LIGHT Ka [1] [M⁻¹ s⁻¹]	74-240 LIGHT Kd [1] [s⁻¹]	64-240 LIGHT Ka [2] [M⁻¹ s⁻¹]	64-240 LIGHT Kd [2] [s⁻¹]	Maximum signal of binding to membrane LIGHT [3]
3B04: parental mouse anti-membrane LIGHT antibody, VL SEQ ID NO 1, VH SEQ ID NO 5; tested as chimeric human IgG4 mAb (antibody, listed as Homo sapiens, V domains shown) VH: QVQLQQPGAELVRPGASVTLSCKASGYTFTDYEMHWVKQTPVHGLEWIGEIDPETGDTAYSQKFKGKATLTADKSSSTAYMEFRSLTSEDSAVYYCSRETDYFFDYWGQGTTLTVSS VL: DIQMTQTPASLSASVGETVTITCGASENIYGALNWYQRKQGKSPQLLIYGATNLADGMSSRFSGSGSGRQYSLKISSLHPDDFATYYCQNVLTTPWTFGGGTKLEIKR	222000	0.00348	251000	0.00345	approximately 40000 MFI
3D12: parental mouse anti-membrane LIGHT antibody, VL SEQ ID NO 41, VH SEQ ID NO 45; tested as chimeric human IgG4 mAb (antibody, listed as Homo sapiens, V domains shown) VH: QVQLQQPGAELVRPGASVTLSCKASDYTFTDSEIHWVKQTPVHGLEWIGEIDPETGGTAYNQKFKGKATLTADKSSSTAYMELRSLTSEDSAVYYCSRETDYFFDYWGQGTTLTVSS VL: DIQMTQSPASLSASVGETVTITCGASENIYGALNWYQRKQGKSPQLLIYGATNLADGMSSRFSGSGSGRQYSLKISSLHPDDVATYYCQNVLSTPWTFGGGTKLEIKR	168000	–	219000	0.00234	approximately 40000 MFI
